Assay results published in PMC10192418, “High-affinity peptides developed against calprotectin and their application as synthetic ligands in diagnostic assays” (Nature Communications, 2023).
Where “and” joins values, the source holds several entries; their conditions need not be identical. Identical values can stand only once. Ends that are not written are not given here. 5(6)‑carboxyfluorescein = 5(6)-carboxyfluorescein on the N-terminus

T1: recombinant calprotectin B-RCAL lacking the His6-tag and with the heterodimer linker cleaved by 3C protease, … (human, cysteines replaced by serines | cysteines replaced by serines)
T1 construct: rest of the first HRV 3C site after cleavage (LEVLFQ/GP), worked out from the indicated cleavage site; S100A9, human; rest of the second HRV 3C site left on S100A9 after cleavage, worked out from the indicated cleavage site; rest of the second HRV 3C site after cleavage, worked out from the indicated cleavage site; S100A8, human; One heterodimer and one peptide in the asymmetric unit; the …
T1 chain 1: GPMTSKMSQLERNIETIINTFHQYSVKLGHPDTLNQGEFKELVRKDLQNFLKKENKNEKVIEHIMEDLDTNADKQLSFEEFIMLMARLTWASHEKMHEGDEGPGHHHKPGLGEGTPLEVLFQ
T1 chain 2: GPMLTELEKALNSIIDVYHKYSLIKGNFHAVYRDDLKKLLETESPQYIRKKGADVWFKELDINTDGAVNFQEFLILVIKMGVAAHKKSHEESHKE

T2: native calprotectin derived from granulocytes (human, UniProt P05109 1-93; P06702 1-114)
T2 construct: S100A8 (Mrp-8), human, native; S100A9 (Mrp-14), human, native; Tetramer with calcium, dimer with 1 mM EDTA; also called S100A8/S100A9; Mrp-8/Mrp-14; source: also native in human serum samples; copies: 2 + 2
T2 sequence (looked up) 1: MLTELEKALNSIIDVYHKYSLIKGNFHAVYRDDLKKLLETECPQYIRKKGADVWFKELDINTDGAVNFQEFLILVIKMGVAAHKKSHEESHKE
T2 sequence (looked up) 2: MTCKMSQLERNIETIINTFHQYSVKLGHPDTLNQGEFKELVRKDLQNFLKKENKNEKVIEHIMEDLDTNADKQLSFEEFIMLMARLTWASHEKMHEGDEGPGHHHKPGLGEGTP

B1: B-RCAL (BÜHLMANN recombinant calprotectin; His6-linker-S100A9-linker-S100A8) (complex, human)
chain: MTCKMSQLERNIETIINTFHQYSVKLGHPDTLNQGEFKELVRKDLQNFLKKENKNEKVIEHIMEDLDTNADKQLSFEEFIMLMARLTWASHEKMHEGDEGPGHHHKPGLGEGTPLEVLFQGPMLTELEKALNSIIDVYHKYSLIKGNFHAVYRDDLKKLLETECPQYIRKKGADVWFKELDINTDGAVNFQEFLILVIKMGVAAHKKSHEESHKE
notes: S100A9 (Mrp-14), human; cleavable linker, HRV 3C protease recognition site (LEVLFQ/GP); not cleaved in this molecule; S100A8 (Mrp-8), human; With calcium two fusion chains form the calprotectin tetramer; without calcium (EDTA) a single fusion chain is the 'dimer' (S100A8/S100A9); also called heterodimeric fusion protein; source: provided by BÜHLMANN Laboratories AG
B2: linear peptide 3 (peptide)
peptide: {5(6)‑carboxyfluorescein}-RSPESVAFPMFQSHWYSG
notes: phage-selected peptide 3 with its four cysteines replaced by serines; Synthesised on rink amide AM resin, so a C-terminal amide is likely (surmised); also called peptide 3 (linear; all four cysteines replaced with serines); source: synthetic peptide (Fmoc solid-phase synthesis, HPLC purified)

How the values were obtained:
[1] = target: the molecule itself; test: dynamic light scattering + other: mass photometry; B-RCAL in 20 mM HEPES, 100 mM NaCl, pH 7.5 with 2 mM CaCl2, 1 h at room temperature; tetramer = two B-RCAL fusion chains
[2] = target: T1, recombinant calprotectin B-RCAL lacking …; test: crystal structure; co-crystallisation of cleaved cysteine-free calprotectin (440 μM) with 14-fold excess of linear peptide 3 and 1 mM CaCl2; sitting drop, 18 °C; 0.1 M MIB pH 6.0, 25% PEG 1500; settings: both partners purified
[3] = target: B1; test: fluorescence polarisation; calprotectin serially diluted, fluorescent peptide at 20 nM; 20 mM HEPES, 100 mM NaCl, 2 mM CaCl2, pH 7.5, 1 mM DTT, 0.01% Tween-20; tetrameric calprotectin; Kd calculated on the concentration of the heterodimer (1:1 heterodimer:peptide); settings: both partners purified
[4] = target: T2, native calprotectin derived from …; test: as above; settings: both partners purified

| Binder | binding result [1] | binding result [2] | Kd [3] | Kd [4] [nM] |
| --- | --- | --- | --- | --- |
| B1 | binds |  |  |  |
| B2 |  | binds | 26 nM and 20 nM | 26 |
